Laboratory results published in the RNAGym collection of RNA variant scans (doi:10.7554/elife.80360).

B1: CPEB3 Ribozyme (parent)
chain: GGGGGCCACAGCAGAAGCGUUCACGUCGCGGCCCCUGUCAGAUUCUGGUGAAUCUGCGAAUUCUGCUGU

Variants of: B1
Assay: self-cleavage, relative activity (ratio to wild type); higher = more cleavage; co-transcriptional
For C9A U49A, the self-cleavage was 1.03.
With A8C G19U the self-cleavage was 0.462.
Work on A8C G19C yielded a self-cleavage of 0.107.
Variant C7G U62A has a self-cleavage of 0.18.
Work on C9G A13U yielded a self-cleavage of 0.837.
C9G A16C gave a self-cleavage of 0.548.
C9A C18G gave a self-cleavage of 0.26.
For C9A G47C, the self-cleavage was 1.
With A8C C27U the self-cleavage was 0.342.
For A8C A42C, the self-cleavage was 0.992.
Work on C7U U44G yielded a self-cleavage of 0.914.
C7U U44A showed a self-cleavage of 0.881.
A8U C9A showed a self-cleavage of 1.03.
For A8G C35U, the self-cleavage was 0.808.
For A8C U20G, the self-cleavage was 0.141.
Variant C9A C39U has a self-cleavage of 0.973.
Work on A8U A42G yielded a self-cleavage of 0.943.
Work on C7U U21C yielded a self-cleavage of 0.688.
With A8U C29A the self-cleavage was 0.269.
With C9A C29U the self-cleavage was 0.992.
C9A C29A showed a self-cleavage of 0.86.
A8C C45G showed a self-cleavage of 0.984.
For C7U G11A, the self-cleavage was 0.816.
For C7U G11C, the self-cleavage was 0.663.
Variant A8G A60C has a self-cleavage of 0.143.
For C9A G48A, the self-cleavage was 1.01.
In the case of A8U U64C, the self-cleavage is reported as 0.953.
Variant A8U U64G has a self-cleavage of 0.87.
A8U U69G showed a self-cleavage of 1.06.
With C7U G47U the self-cleavage was 1.02.
With A8U G28U the self-cleavage was 0.0893.
Variant A8U G28A has a self-cleavage of 0.141.
Variant A8C G37C has a self-cleavage of 0.239.
Variant C9A A16C has a self-cleavage of 0.56.
Variant C9A A16G has a self-cleavage of 0.992.
A8U U67C showed a self-cleavage of 1.
Variant A8U U67A has a self-cleavage of 1.03.
Work on C9A U55C yielded a self-cleavage of 0.982.
Variant C9A U55G has a self-cleavage of 0.874.
Work on C9G A51C yielded a self-cleavage of 0.674.
Work on A8U G14C yielded a self-cleavage of 0.593.
A8G G50U gave a self-cleavage of 0.877.
Work on A8G G50A yielded a self-cleavage of 0.868.
With C9A C32A the self-cleavage was 1.
C9A C32G showed a self-cleavage of 0.843.
For C7U U20G, the self-cleavage was 0.17.
With C7U G50A the self-cleavage was 0.996.
Variant C7U U49A has a self-cleavage of 0.957.
With C9G C34A the self-cleavage was 0.953.
With C9G C34U the self-cleavage was 1.01.
With A8U G37C the self-cleavage was 0.169.
With C9G C27G the self-cleavage was 0.246.
C9G C27A gave a self-cleavage of 0.754.
C9A A10G gave a self-cleavage of 1.01.
In the case of C9A A10C, the self-cleavage is reported as 1.02.
For A8U G58A, the self-cleavage was 0.995.
For A8U A52C, the self-cleavage was 0.975.
C9A G31U showed a self-cleavage of 0.961.
In the case of C9A G31C, the self-cleavage is reported as 0.291.
In the case of C9A G31A, the self-cleavage is reported as 1.
In the case of C9G A40U, the self-cleavage is reported as 0.827.
Variant C9G A40C has a self-cleavage of 0.715.
A8U C12U showed a self-cleavage of 1.05.
For A8G U20A, the self-cleavage was 0.0589.
A8U U53A showed a self-cleavage of 0.913.
Variant A8U U53G has a self-cleavage of 0.891.
Work on C9A U67A yielded a self-cleavage of 1.03.
A8C U26C showed a self-cleavage of 0.992.
With A8C U26G the self-cleavage was 0.835.
In the case of A8C U26A, the self-cleavage is reported as 0.82.
C9A G56U gave a self-cleavage of 0.98.
C9A G56C showed a self-cleavage of 0.921.
For A8G C39U, the self-cleavage was 0.448.
With C7U U64G the self-cleavage was 0.899.
In the case of C9A G17C, the self-cleavage is reported as 0.204.
For A8U C66U, the self-cleavage was 0.993.
For A8U C66A, the self-cleavage was 0.857.
Variant A8G U44G has a self-cleavage of 0.651.
A8G U44A gave a self-cleavage of 0.607.
Variant C9A U36A has a self-cleavage of 0.315.
Work on A8U C35G yielded a self-cleavage of 0.435.
C7U C54G showed a self-cleavage of 0.766.
Variant A8C G48A has a self-cleavage of 1.
With C7U G14C the self-cleavage was 0.417.
In the case of A8G G37U, the self-cleavage is reported as 0.134.
In the case of A8G G37A, the self-cleavage is reported as 0.128.
In the case of C9G C54G, the self-cleavage is reported as 0.926.
A8C G25U showed a self-cleavage of 0.177.
For C7U U53C, the self-cleavage was 0.784.
With C7U A60C the self-cleavage was 0.231.
With A8U U36G the self-cleavage was 0.163.
For C7U C22U, the self-cleavage was 0.155.
A8C U69C showed a self-cleavage of 1.07.
C7U C12U gave a self-cleavage of 0.94.
With C7U C12G the self-cleavage was 0.822.
Work on C7U C35A yielded a self-cleavage of 0.194.
Variant C7U C35G has a self-cleavage of 0.28.
For A8G G47A, the self-cleavage was 1.
Variant A8C U44G has a self-cleavage of 0.927.
Work on A8G A13C yielded a self-cleavage of 0.126.
Work on A8G A13G yielded a self-cleavage of 0.192.
Variant A8G A51U has a self-cleavage of 0.772.
A8G A51G gave a self-cleavage of 0.901.
Work on A8U G65A yielded a self-cleavage of 0.901.
In the case of C7U G37A, the self-cleavage is reported as 0.187.
Work on C7U G37C yielded a self-cleavage of 0.152.
Variant C9G A60G has a self-cleavage of 0.952.
C7U C57G gave a self-cleavage of 0.155.
Work on A8U G19C yielded a self-cleavage of 0.146.
Work on A8U G19U yielded a self-cleavage of 0.483.
Variant A8U U21A has a self-cleavage of 0.994.
In the case of A8G C27G, the self-cleavage is reported as 0.0649.
In the case of A8G C32G, the self-cleavage is reported as 0.517.
A8G C32U gave a self-cleavage of 0.877.
Variant C9A A42G has a self-cleavage of 0.997.
With C9A A42U the self-cleavage was 0.997.
Variant A8U A40G has a self-cleavage of 0.97.
Variant A8U U55A has a self-cleavage of 0.967.
For A8C G47U, the self-cleavage was 1.04.
In the case of A8C G47C, the self-cleavage is reported as 1.03.
A8U C45A gave a self-cleavage of 1.01.
Variant A8U C45G has a self-cleavage of 0.958.
A8C A51G gave a self-cleavage of 0.962.
A8C A51C showed a self-cleavage of 0.981.
A8C C12A showed a self-cleavage of 0.637.
C9G C63G gave a self-cleavage of 0.799.
A8C U46G showed a self-cleavage of 0.982.
Variant C9A A23C has a self-cleavage of 1.01.
For A8G G58A, the self-cleavage was 0.867.
A8G G58U showed a self-cleavage of 0.92.
With A8U A13U the self-cleavage was 0.805.
For A8U U43G, the self-cleavage was 0.913.
C7U C32U showed a self-cleavage of 0.984.
For A8U A51C, the self-cleavage was 0.974.
Variant A8G G65C has a self-cleavage of 0.424.
In the case of A8G G65U, the self-cleavage is reported as 0.223.
Variant C7U G41C has a self-cleavage of 0.647.
With C7U U55G the self-cleavage was 0.706.
Variant C7U U55C has a self-cleavage of 0.744.
In the case of C7U C63G, the self-cleavage is reported as 0.603.
Work on C7U G56A yielded a self-cleavage of 0.916.
In the case of A8C U21A, the self-cleavage is reported as 0.972.
With A8C U21G the self-cleavage was 0.501.
With A8C U55C the self-cleavage was 0.891.
With C9A G41U the self-cleavage was 0.955.
In the case of C9A C63A, the self-cleavage is reported as 0.953.
Work on C9A C63G yielded a self-cleavage of 0.806.
Work on A8U G25U yielded a self-cleavage of 0.0965.
A8U C63G gave a self-cleavage of 0.782.
A8U C63U gave a self-cleavage of 1.03.
Variant A8C G68A has a self-cleavage of 1.02.
For A8G C9A, the self-cleavage was 0.994.
In the case of A8G G19A, the self-cleavage is reported as 0.0612.
A8U C22A gave a self-cleavage of 0.154.
With C9A G58U the self-cleavage was 1.04.
In the case of C9A G58C, the self-cleavage is reported as 1.04.
With C9A C27A the self-cleavage was 0.798.
For C7U G48C, the self-cleavage was 0.949.
C9A G28A gave a self-cleavage of 0.265.
C9A A59U gave a self-cleavage of 0.897.
A8U U62A showed a self-cleavage of 0.97.
For A8U U62G, the self-cleavage was 0.945.
In the case of C7U C66A, the self-cleavage is reported as 0.8.
Variant C7U C66U has a self-cleavage of 0.982.
C9G C45U gave a self-cleavage of 0.998.
With C9G C45A the self-cleavage was 1.01.
In the case of C7U G25U, the self-cleavage is reported as 0.089.
